Experimental data from the supplement of paper PMC10126150.
± gives the standard deviation of the averaged measurements.

test system: ATP; experiment: switch fluorescence ratio, 500 uM ATP over buffer (Cy3 cluster intensity, sum of 5 cycles each) (fold (ratio)); higher = stronger signal-on switching upon ATP binding; sequences stand for … in TCGTCGGCAGCGTCAGATGTGTATAAGAGACAGTTTTTTTTTTTTTTTTTTTTTTTTT…TC; conditions: aptamer strand: ATP DNA aptamer (quencher-CACCTGGGGGAGTATTGCGGAGGAAGG + anchor), 100 nM annealed; ATP concentration: 500 uM
In short: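 Five buffer/ATP imaging cycles were run on Cy3-labelled switching-strand clusters on a modified Illumina MiSeq flow-cell, with NaOH stripping and re-annealing between cycles. In each cycle, clusters annealed to 100 nM quencher-labelled ATP aptamer were imaged in selection buffer, then after 15 min with 500 uM ATP at 22 °C. Per cluster, the fluorescence ratio is summed target-cycle over summed buffer-cycle Cy3 intensity, averaged per switch-domain sequence. Only clusters within 100-1000 RFU were kept.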
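Note: ATP exposure 15 min at 22 °C before imaging.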

In order of rising switch fluorescence ratio:
1. AGTCTTAGTC  0.9497 ± 0.002
2. AGTATATGTG  0.955 ± 0.023
3. AGTCTGGGGG  0.959 ± 0.011
4. AGTTAGTTTG  0.961 ± 0.022
5. AGTCGGTGTG  0.963 ± 0.0099
6. AGTGAGAGGG  0.966 ± 0.051
7. AGTCAGTTGG  0.967 ± 0.041
8. AGTCCTAGCC  0.97 ± 0.012
9. AGTGAGGGGA  0.975 ± 0.015
10. AGTCGATGTC  0.9763 ± 0.0039
11. AGTCGTCTTG  0.977 ± 0.026
12. AGTCTGCCA  0.977 ± 0.015
13. AGTGACGGTT  0.977 ± 0.021
14. AGTGGTGGTT  0.977 ± 0.057
15. AGTATAATTT  0.978 ± 0.045
16. AGTATTAGAA  0.978 ± 0.012
17. AGTGGGGAGC  0.978 ± 0.031
18. AGTCCTTTTT  0.979 ± 0.021
19. AGTGAGGGAA  0.9787 ± 0.003
20. AGTGTGGGTT  0.979 ± 0.0047
21. AGTGTGCGTG  0.9812 ± 0.0076
22. AGTCATAAAG  0.984 ± 0.014
23. AGTGCGGCCG  0.9846 ± 0.0036
24. AGTATGACGT  0.986 ± 0.026
25. AGTATTGGTT  0.986 ± 0.021
26. AGTGATTGAA  0.987 ± 0.033
27. AGTGTGTTAG  0.987 ± 0.015
28. AGTCCAAGAG  0.9889 ± 0.0045
29. AGTGCAGGGA  0.9894 ± 0.0077
30. AGTGGTGCCG  0.989 ± 0.02
31. AGTGGTGTTT  0.989 ± 0.016
32. AGTTAGGAGT  0.9895 ± 0.0087
33. AGTAGGAATT  0.99 ± 0.038
34. AGTGTGGGTA  0.99 ± 0.021
35. AGTTAGTGAA  0.99 ± 0.022
36. AGTGTGCAGG  0.992 ± 0.017
37. AGTGCTTTTA  0.9927 ± 0.0073
38. AGTAGTGGGG  0.994 ± 0.013
39. AGTGCCTATG  0.994 ± 0.019
40. AGTCTGAAGG  0.995 ± 0.014
41. AGTGATTGGG  0.995 ± 0.031
42. AGTGCTTACG  0.995 ± 0.025
43. AGTCAAATGG  0.996 ± 0.043
44. AGTGGCACTG  0.996 ± 0.0088
45. AGTGTGTTTT  0.996 ± 0.015
46. AGTAGTGCGT  0.997 ± 0.04
47. AGTATCGTGC  0.9968 ± 0.0098
48. AGTCCTGGCC  0.999 ± 0.022
49. AGTGGGCTAT  0.999 ± 0.027
50. AGTAGGGGG  1 ± 0.056
51. AGTAGTACGG  1 ± 0.029
52. AGTATATATT  1.003 ± 0.0035
53. AGTATGAGGG  1 ± 0.076
54. AGTATTAATG  1 ± 0.04
55. AGTCAAGGGT  1 ± 0.0014
56. AGTCGCGGAG  1 ± 0.08
57. AGTCTACTAT  1 ± 0.0088
58. AGTGATGTGG  1 ± 0.024
59. AGTGCGGTGG  1 ± 0.059
60. AGTGGGCGGG  1.003 ± 0.0097
61. AGTGTATTGA  1 ± 0.036
62. AGTGTCGTGG  1 ± 0.046
63. AGTACCATGG  1.01 ± 0.06
64. AGTAGGAAGC  1.01 ± 0.03
65. AGTAGGGGCC  1.012 ± 0.0083
66. AGTATATTTT  1.006 ± 0.0046
67. AGTATCACGG  1.011 ± 0.0068
68. AGTATGGTAG  1.0145 ± 0.00092
69. AGTCAGTCTG  1.01 ± 0.059
70. AGTCGGGGGA  1.01 ± 0.023
71. AGTCTCAAGT  1.01 ± 0.045
72. AGTGATTCGT  1.01 ± 0.038
73. AGTGCAACTG  1.01 ± 0.03
74. AGTGCGCATG  1.01 ± 0.032
75. AGTGGGATTA  1.01 ± 0.021
76. AGTGGTATAG  1.01 ± 0.034
77. AGTGGTGTCT  1.01 ± 0.033
78. AGTTAAAGAG  1.01 ± 0.021
79. AGTAGGACGC  1.02 ± 0.018
80. AGTCAGGTT  1.02 ± 0.019
81. AGTCGCCCGC  1.02 ± 0.032
82. AGTCGGGGTA  1.02 ± 0.027
83. AGTCTAAACT  1.02 ± 0.016
84. AGTGAATTCA  1.016 ± 0.0062
85. AGTGAGGCGG  1.02 ± 0.013
86. AGTGGATATT  1.02 ± 0.011
87. AGTGTCTCCT  1.02 ± 0.058
88. AGTCAAACGA  1.03 ± 0.028
89. AGTCCCGTGC  1.03 ± 0.052
90. AGTACGTCTC  1.04 ± 0.0099
91. AGTGAGTGCA  1.039 ± 0.0094
92. AGTGTATAAA  1.042 ± 0.0077
93. AGTATGAGTC  1.056 ± 0.01
94. AGTCCTGGCG  1.07 ± 0.023
95. AGTTACTTAG  1.07 ± 0.038
96. AGTGAAGGGG  1.1 ± 0.15
97. AGTACGGTAA  1.13 ± 0.025
98. AGTCCTCGGC  1.13 ± 0.071
99. AGTGTAATGC  1.15 ± 0.022
100. AGTGGCTTCC  2.043 ± 0.013
